Values belong to the binder of their own block, whether it stands above or below them.
Tests used:
Test in all cases: ELISA
[1] = target: T1, laminin peptide LAMA5_(3539–3550) (Homo sapiens (Human), UniProt O15230)
T1 chain: TLPDVGLELEVR

[2] = target: T2, laminin peptide LAMA4_(1408–1434) (Homo sapiens (Human), UniProt Q16363)
T2 chain: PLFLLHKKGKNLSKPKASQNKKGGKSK

[3] = target: T3, laminin peptide LAMA5_(3417–3436) (Homo sapiens (Human), UniProt O15230)
T3 chain: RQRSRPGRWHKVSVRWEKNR

[4] = target: T4, laminin peptide LAMA3_(3043–3067) (Homo sapiens (Human), UniProt Q16787)
T4 chain: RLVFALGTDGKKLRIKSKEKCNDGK

[5] = target: T5, laminin peptide LAMA4_(1521–1543) (Homo sapiens (Human), UniProt Q16363)
T5 chain: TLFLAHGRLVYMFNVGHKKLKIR

[6] = target: T6, laminin peptide LAMA5_(3300–3330) (Homo sapiens (Human), UniProt O15230)
T6 chain: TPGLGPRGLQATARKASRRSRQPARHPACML

binding result [1]: no binding | binding result [2]: binds | binding result [3]: binds | binding result [4]: binds | binding result [5]: binds | binding result [6]: binds
B1: recombinant human syndecan-1 (protein)
chain: QIVATNLPPEDQDGSGDDSDNFSGSGAGALQDITLSQQTPSTWKDTQLLTAIPTSPEPTGLEATAASTSTLPAGEGPKEGEAVVLPEVEPGLTAREQEATPRPRETTQLPTTHLASTTTATTAQEPATSHPHRDMQPGHHETSTPAGPSQADLHTPHTEDGGPSATERAAEDGASSQLPAAEGSGEQDFTFETSGENTAVVAVEPDRRNQSPVDQGATGASQGLLDRKEVLG

binding result [1]: no binding | binding result [2]: binds | binding result [3]: binds | binding result [4]: binds | binding result [5]: binds | binding result [6]: binds
B2: recombinant human syndecan-2 (protein)
chain: ESRAELTSDKDMYLDNSSIEEASGVYPIDDDDYASASGSGADEDVESPELTTSRPLPKILLTSAAPKVETTTLNIQNKIPAQTKSPEETDKEKVHLSDSERKMDPAEEDTNVYTEKHSDSLFKRTE

binding result [1]: no binding | binding result [2]: binds | binding result [3]: binds | binding result [4]: binds | binding result [5]: binds | binding result [6]: binds
B3: recombinant human syndecan-4 (protein)
chain: ESIRETEVIDPQDLLEGRYFSGALPDDEDVVGPGQESDDFELSGSGDLDDLEDSMIGPEVVHPLVPLDNHIPERAGSGSQVPTEPKKLEENEVIPKRISPVEESEDVSNKVSMSSTVQGSNIFERTE

Reference: PMC5986797 (2018)
